According to PMC8534766:
Starred links: 1 amine or outer side, 2 acyl side, 3 side chain; linkers in the order of their positions; H or OH if unused. Benzoyl(5-NH,2-NO2) = O=C(c1cc(N[*:1])ccc1[N+](=O)[O-])[*:2]

Biological target: SP-1, serine protease from Clostridium ramosum DSM1402 (Clostridium ramosum DSM1402)

KM of steady-state cleavage of the substrate by SP-1 (20 nM SP-1, 0.05-2 mM substrate, 20 mM Tris, 300 mM NaCl, 1 mM CaCl2, pH 8, room temperature; Michaelis-Menten fit): 0.000191 M
Binder: {ABZ}-IMAR-{Benzoyl(5-NH,2-NO2)-NH2} [ABZ-Ileu-Met-Ala-Arg-ANB-NH2]
